How the values were obtained:
[1] = target: human CLDN18.2 expressed on cells (human); experiment: cell-based or functional assay
[2] = target: human CLDN18.2 expressed on cells (human); experiment: cell-based or functional assay; remark: listed apart in the source
[3] = target: human CLDN18.2 expressed on cells (human); experiment: cell-based or functional assay; remark: listed apart in the source
[4] = target: human CLDN18.2 expressed on cells (human); experiment: cell-based or functional assay; remark: listed apart in the source
[5] = target: human CLDN18.2 expressed on cells (human); experiment: cell-based or functional assay; remark: listed apart in the source
[6] = target: T1, human CLDN18.2 expressed on cells (human); experiment: KinExA 4000, antibody constant, CHO cells over-expressing huCLDN18.2 titrated
T1 construct: also called huCLDN18.2; CLDN18.2-expressing 293T cells
Description: A KinExA 4000 instrument was also used to measure binding affinity of the antibodies to surface protein of intact cells, i.e., CHO cells over-expressing huCLDN18.2. Concentration of the antibodies was held constant (CBP) and concentration of whole cells with surface protein were varied (titrant). Concentration of whole cells with surface proteins were diluted three-fold. Titrated cells were incubated with the constant binding partner (CBP). Once equilibrium was reached, the samples were centrifuged, the supernatants were recovered, and the free CBP was detected with a fluorescently labeled anti-CBP molecule.
To establish a more accurate Kd, two equilibrium curves were prepared and analyzed. One curve with low concentration of CBP at 100 pM (200 pM binding sites) and 10⁶ cells/mL with three-fold dilutions, and one curve with high concentration of CBP at 10 nM (20 nM binding sites) and 10⁶ cells/mL with three-fold dilutions. The KinExA 4000 measured the amount of unbound CBP in solution. Analysis was performed using Sapidyne Instruments n-Curve Analysis Software version 4.4.26.

[7] = target: T1, human CLDN18.2 expressed on cells; experiment: flow cytometry (percent FITC-positive cells, GAH-FITC secondary) on CHO cells expressing huCLDN18.2
Description: CHO cells expressing huCLDN18.2 were used to assess the binding of the antibodies. Cells were seeded at 5×10⁵ cells per 100 μl into a well of a 96-well plate for each sample. Then, 100 μl of each serially diluted antibody was added to the cells, each dilution started at 40 µg/ml and was diluted 5-fold. Therefore, the final concentration of each antibody starts at 20 µg/ml followed by a 5-fold serial dilution. After 1 hour, the cells were washed twice and 100 μl of GAH-FITC (1:200 dilution) was added to each well. After 30 minutes, the cells were washed twice and resuspended in 120 μl of FACS buffer. The cells were analyzed via flow cytometry.
Unstained cells were used as a reference to set up overall target cell gating and to establish the FITC-negative populations, allowing us to establish the FITC-positive cell gate for each cell line. Additionally, the mean fluorescence intensity (MFI) of the entire population of cells was calculated to secondarily validate the FITC-positive results. The ratio of the gated positive cell number to the total live cell number is taken as the percentage of positive cells.

B1: YL-G2-B (antibody, human IgG1, kappa)
heavy: EVQLQQSGPELEKPGASVKISCKASGYSFTGYKMNWVKQSNGKSLEWIGNIDPYYGGTTYNQKFKGKATLTVDKSSSTAYMQLKSLTSEDSAVYYCARYGKGNTMDYWGQGTSVTVSSASTKGPSVFPLAPSSKSTSGGTAALGCLVKDYFPEPVTVSWNSGALTSGVHTFPAVLQSSGLYSLSSVVTVPSSSLGTQTYICNVNHKPSNTKVDKRVEPKSCDKTHTCPPCPAPELVGGPSVFLLPPKPKDTLMISRTPEVTCVVVDVSHEDPEVKFNWYVDGVEVHNAKTKPPEEQYNSTLRVVSVLTVLHQDWLNGKEYKCKVSNKALPAPIEKTISKAKGQPREPQVYTLPPSREEMTKNQVSLTCLVKGFYPSDIAVEWESNGQPENNYKTTPLVLDSDGSFFLYSKLTVDKSRWQQGNVFSCSVMHEALHNHYTQKSLSLSPGK
light: DIVMTQSPSSLTVTAGEKVTMSCKSSQSLLNSGNQKNYLTWYQQRPGQPPKLLIYWASTRESGVPVRFTGSGSGTDFTLTISSVQAEDLAVYYCQNAYIYPLTFGTGTKLELKRTVAAPSVFIFPPSDEQLKSGTASVVCLLNNFYPREAKVQWKVDNALQSGNSQESVTEQDSKDSTYSLSSTLTLSKADYEKHKVYACEVTHQGLSSPVTKSFNRGEC
notes: also called YL-G2-B batch 1; YL-G2-B batch 2
- ADCC, FACS: EC50 [1]: 7.3 pM
- ADCC, LDH: EC50 [1]: 12 pM
- CDC on CT26 CLDN18.2 cells, LDH: EC50 (batch 1) [2]: 140 pM
- CDC on CT26 CLDN18.2 cells, LDH: EC50 (batch 2) [2]: 120 pM
- CDC on KATOIII CLDN18.2 cells, LDH: EC50 (batch 1) [3]: 1240 pM
- CDC on KATOIII CLDN18.2 cells, LDH: EC50 (batch 2) [3]: 1330 pM
- ADCC on KATOIII CLDN18.2 cells, LDH: EC50 (batch 1) [4]: 28 pM
- ADCC on KATOIII CLDN18.2 cells, LDH: EC50 (batch 2) [4]: 18 pM
- ADCC on NCI-N87 CLDN18.2 cells, LDH: EC50 (batch 1) [5]: 6.7 pM
- ADCC on NCI-N87 CLDN18.2 cells, LDH: EC50 (batch 2) [5]: 12 pM
- Kd [6]: 9.4 pM
- EC50 (read off the curve) [7]: ~0.6 ng/mL

Source: patent US20250263481A1 (SHIJIAZHUANG YILING PHARMACEUTICAL, published 2025)
